Two molecules from patent publication US20160038607A1 (UNIVERSITY OF NOTRE DAME DU LAC, published 2016) can be followed below.

Bridges are numbered along the chain shown (N, C = ends). Where no end group is shown, it is not given here.

Assay [1] concerns the target T1, Human Epidermal Growth Factor Receptor 2 (HER2) (human, UniProt P04626 23-1255). Nature of the assay: cell-based or functional assay.
For assay [2], the target named is T1, Human Epidermal Growth Factor Receptor …. Kind of assay: flow cytometry, fluorescein labeled peptide on BT-474 cells, on ice.
Description: (§1) For HER2 expression assays, cells were incubated with primary antibody in binding buffer on ice for 1 hour and washed twice. Fluorescein conjugated secondary antibody was added for 1 hour on ice, samples were washed, and analyzed on Guava easyCyte 8HT flow cytometer (Millipore). Isotype matched antibodies were used as negative controls. For cell-based peptide binding assays, cells were incubated with increasing concentrations of fluorescein-conjugated peptides for 2 hours on ice. Samples were washed twice and analyzed on Guava easyCyte 8HT flow cytometer.
The target is the same in assay [3]. Nature of the assay: flow cytometry, fluorescein labeled peptide on SK-BR-3 cells, on ice.
Description: as §1

B1: HER2-pep-EG12-PA conjugate on PEG350 coated liposomes (95:10:3:2 HSPC:CHOL:PEG350:HER2-pep) (peptide)
peptide: YCDGFYACYMDV
modifications: disulfide 2-8 (inferred); not fully specified (N-terminus); also: displayed on PEG350-coated liposomes
Regarding B1, in assay [1], the “cellular uptake of liposomes at 2% peptide density, fold enhancement” value was roughly 10 fold; the “cellular uptake of liposomes by BT-474 and SK-BR-3 cells, 3 h (flow cytometry), fold greater than control” value is roughly 9 fold; the “cellular uptake of liposomes by BT-474 cells at 24 h, fold greater than control liposomes” value was roughly 5 fold; the “cellular uptake of liposomes by SK-BR-3 cells at 24 h, fold greater than control liposomes” value is roughly 4 fold.

B2: HER2-antagonist peptide (HER2-pep), fluorescein labeled (peptide)
peptide: YCDGFYACYMDV
modifications: disulfide 2-8 (inferred); also: fluorescein label, position not given here
As a reminder, the Kd is the free concentration of one partner at which half of the binding sites on the other are occupied at equilibrium, for simple one-to-one binding. High values mean lower affinity, low ones higher affinity. Turning to B2, the Kd in assay [2] stood at 1.97 µM; in assay [3] it was 1.75 µM.
